From patent US20240051999A1 (JOHN INNES CENTRE, published 2024)

T1: vWA (von Willebrand factor type A) domain of Arabidopsis thaliana RPN10 (Arabidopsis thaliana, UniProt P55034 1-193)
T1 construct: In Y2H it was a fusion to a GAL4 domain; also called AtvWA; AtRPN10 vWA domain
T1 sequence: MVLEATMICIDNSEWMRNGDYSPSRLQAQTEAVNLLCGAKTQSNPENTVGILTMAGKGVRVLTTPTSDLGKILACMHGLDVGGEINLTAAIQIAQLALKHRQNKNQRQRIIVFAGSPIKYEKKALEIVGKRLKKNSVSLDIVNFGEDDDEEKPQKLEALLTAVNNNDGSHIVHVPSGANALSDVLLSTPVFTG

T2: UIM domain (C-terminal half with ubiquitin-interacting motifs) of Arabidopsis thaliana RPN10 (Arabidopsis thaliana, UniProt P55034 194-386)
T2 construct: domain: UIM domain
T2 sequence: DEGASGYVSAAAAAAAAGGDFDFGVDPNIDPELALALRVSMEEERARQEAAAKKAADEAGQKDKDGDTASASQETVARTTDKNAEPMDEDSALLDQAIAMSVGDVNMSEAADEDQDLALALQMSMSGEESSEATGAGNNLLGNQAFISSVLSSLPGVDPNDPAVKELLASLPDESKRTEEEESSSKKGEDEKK

B1: ZnF (zinc-finger) domain of Arabidopsis thaliana SPL5 (other)
chain: SRLCQVDRCTVNLTEAKQYYRRHRVCEVHAKASAATVAGVRQRFCQQCSRFHELPEFDEAKRSCRRRLAGHNERRRKI
notes: domain: ZnF domain; Recombinant protein from E. coli; also called ZnF domain of AtSPL5
B2: SAP05 (effector protein from AY-WB phytoplasma) (other)
chain: APNEEFVGDMRIVNVNLSNIDILKKHETFKKYFDFTLTGPRYNGNIAEFAMIWKIKNPPLNLLGVFFDDGTRDDEDDKYILEELKQIGNGAKNMYIFWQYEQK
notes: also called SAP05_AYWB; His-tagged SAP05

Experiments:
[1] = molecular target: T1, vWA (von Willebrand factor type A) …; experiment: His-tag pull-down (iMAC), His-sumo-tagged vWA as bait
[2] = molecular target: T2, UIM domain (C-terminal half with …); experiment: yeast two-hybrid

Row | Binder | binding result [1] | binding result [2]
1 | B1 | no binding | 
2 | B2 |  | no binding
